According to the RNAGym collection of RNA variant scans (doi:10.7554/elife.80360):

B1: HDV Ribozyme (parent)
chain: GGCCGGCAUGGUCCCAGCCUCCUCGCUGGCGCCGGCUGGGCAACAUUCCGAGGGGACCGUCCCCUCGGUAAUGGCGAAUGGGACCCA

Variants of: B1
Assay: self-cleavage, relative activity (ratio to wild type); higher = more cleavage; co-transcriptional
With G35A U37C the self-cleavage was 0.396. Work on G35A A77C yielded a self-cleavage of 0.131. Work on G39U C61A yielded a self-cleavage of 0.589. Work on A8U C15G yielded a self-cleavage of 0.277. A71C C84U showed a self-cleavage of 0.604. Variant C7U G82A has a self-cleavage of 0.251. With G6C U72G the self-cleavage was 0.229. Work on U27G C57G yielded a self-cleavage of 0.895. In the case of C3A C14U, the self-cleavage is reported as 0.697. Variant G38C G68A has a self-cleavage of 0.172. In the case of C26G U27A, the self-cleavage is reported as 0.516. For C15A C85U, the self-cleavage was 0.755. G76U C84U gave a self-cleavage of 1.11. Work on C49A G82C yielded a self-cleavage of 0.222. Work on C14U A42C yielded a self-cleavage of 0.232. With G40U G67U the self-cleavage was 0.757. Variant A8U C26U has a self-cleavage of 0.86. For A71C G81A, the self-cleavage was 0.309. In the case of G5C A43C, the self-cleavage is reported as 0. G34C U60G gave a self-cleavage of 0.0978. For G38U C75U, the self-cleavage was 0.163. G54U C63A showed a self-cleavage of 0.901. Variant G6A C62U has a self-cleavage of 0.728. For G40U C61G, the self-cleavage was 0.534. With A8G C48A the self-cleavage was 1.07. G68A A77C gave a self-cleavage of 0.155. Work on G17A C84A yielded a self-cleavage of 0.807. With A16C C26G the self-cleavage was 0.731. G25U C30U showed a self-cleavage of 0.102. C3A G29U gave a self-cleavage of 0.0316. For G39A G73C, the self-cleavage was 0.205. With C21U A87C the self-cleavage was 0.206. With C32U A45C the self-cleavage was 0.291. In the case of U12A C48A, the self-cleavage is reported as 0.244. Work on C24U C64U yielded a self-cleavage of 0.511. With A51U A77C the self-cleavage was 0.453. G50C G76A showed a self-cleavage of 0.915. C57A G59U gave a self-cleavage of 1.11. In the case of G1C A83U, the self-cleavage is reported as 0.252. For C49U A78G, the self-cleavage was 0.692. With A8G C24U the self-cleavage was 0.665. For C3G A87C, the self-cleavage was 0.861. In the case of G25C G76A, the self-cleavage is reported as 0.0875. Work on G1A C62G yielded a self-cleavage of 0.0519. With U12C G38A the self-cleavage was 0.0875. In the case of A45C G50U, the self-cleavage is reported as 0.494. For C3A G31U, the self-cleavage was 0.0339. For C30A C85G, the self-cleavage was 0.509. For G38C G76A, the self-cleavage was 0.205. For C61A C86G, the self-cleavage was 0.908. Variant G54U A83G has a self-cleavage of 0.956. Work on C15G G39C yielded a self-cleavage of 0.0723. G5C G67C showed a self-cleavage of 0.252. Work on C22U G34A yielded a self-cleavage of 0.0468. In the case of C15A C64A, the self-cleavage is reported as 0.689. Work on C36A G73A yielded a self-cleavage of 0.104. Variant G54C G81A has a self-cleavage of 0.393. C32U A77G showed a self-cleavage of 0.73. A43C G81C gave a self-cleavage of 0.0773. With G38U U72C the self-cleavage was 0.0978. Variant C15G C66A has a self-cleavage of 0.665. U12C C44A showed a self-cleavage of 0.252. In the case of G5U G68U, the self-cleavage is reported as 0.268. With C4U C24G the self-cleavage was 0.0678. C18G G31C gave a self-cleavage of 0.0449. With C15U G17C the self-cleavage was 0.0978. C13A C21U gave a self-cleavage of 0.0583. Variant G38U G82U has a self-cleavage of 0.129. In the case of C30G C57A, the self-cleavage is reported as 0.138. C32U C48U showed a self-cleavage of 0.69. In the case of C21A C62G, the self-cleavage is reported as 0.138. C36G G80C gave a self-cleavage of 0.108. C3A C48U gave a self-cleavage of 0.635. With G54U A83C the self-cleavage was 0.386. G10U C85A showed a self-cleavage of 1.15. C4A U20C gave a self-cleavage of 0.214. U72G C86U showed a self-cleavage of 0.705. C36G U72C showed a self-cleavage of 0.0462. Variant C19A C41G has a self-cleavage of 0. In the case of C19U G34U, the self-cleavage is reported as 0.0755. Work on U65A A71U yielded a self-cleavage of 0.76. In the case of A70C A78C, the self-cleavage is reported as 0.208. In the case of G54U C58U, the self-cleavage is reported as 0.94. In the case of A8U U46A, the self-cleavage is reported as 0.415. In the case of C13U G28A, the self-cleavage is reported as 0.128. Work on C14G U72A yielded a self-cleavage of 0.383. In the case of G31U G39U, the self-cleavage is reported as 0.285. Work on G25A C61G yielded a self-cleavage of 0.185. G5A A42G showed a self-cleavage of 0. For G25C U72C, the self-cleavage was 0.123. C13U C26G showed a self-cleavage of 0.831. G39U A71G showed a self-cleavage of 0.383. Variant C7A C86A has a self-cleavage of 0.804. G1A U79C showed a self-cleavage of 0.119. Variant C18U A45G has a self-cleavage of 0.306. Variant G59U C85U has a self-cleavage of 0.935. In the case of C13A G55C, the self-cleavage is reported as 0.143. G25U A70U showed a self-cleavage of 0.0852. U20C gave a self-cleavage of 0.129. C13A G35A gave a self-cleavage of 0.0339. For U27G A43G, the self-cleavage was 0.302. With U27C C84U the self-cleavage was 0.65. With A8G A43U the self-cleavage was 0.519. In the case of C32A A78G, the self-cleavage is reported as 0.113. Variant C57A C66A has a self-cleavage of 1.18. C19G C24U showed a self-cleavage of 0.0339. Variant G28U G39C has a self-cleavage of 0.125. For A43U G54C, the self-cleavage was 0.196. Work on A56C G80A yielded a self-cleavage of 0.292. Variant U46G C48A has a self-cleavage of 0.903. A42G A56U showed a self-cleavage of 0.698. C24G A77G gave a self-cleavage of 0.298. G25U U65C gave a self-cleavage of 0.237. With U79G C86G the self-cleavage was 0.712. C49A U60A showed a self-cleavage of 0.745. Variant C64U U69G has a self-cleavage of 1.07. With C48A U65G the self-cleavage was 0.954. G6C G34U showed a self-cleavage of 0. Work on G31U U72G yielded a self-cleavage of 0.128. In the case of G11U C33U, the self-cleavage is reported as 0.0997. C13U A45G gave a self-cleavage of 0.465. In the case of G5U C84U, the self-cleavage is reported as 0.219. In the case of C21G C58G, the self-cleavage is reported as 0. C21U A56C gave a self-cleavage of 0.289. Variant U20G U47C has a self-cleavage of 0.133. For C22A G29A, the self-cleavage was 0.0297. G38C U46A gave a self-cleavage of 0.101. With C26U C63A the self-cleavage was 0.969. Work on G38U U79G yielded a self-cleavage of 0.208. U12G A45C showed a self-cleavage of 0.399. With A42U A70C the self-cleavage was 0.636. Work on C49A C86A yielded a self-cleavage of 1.22. C7U U69G showed a self-cleavage of 0.855. G35U C44A gave a self-cleavage of 0. A51G C66U showed a self-cleavage of 0.89. For U27C C62G, the self-cleavage was 0.615. In the case of G29C G35A, the self-cleavage is reported as 0.104. Work on G5A A43C yielded a self-cleavage of 0.0594. For U69A G82U, the self-cleavage was 0.491. C4A U60A showed a self-cleavage of 0.284. Work on U65G yielded a self-cleavage of 0.988. In the case of G25C C84A, the self-cleavage is reported as 0.0489. In the case of C19G G53U, the self-cleavage is reported as 0.0542. In the case of C14U C61A, the self-cleavage is reported as 1.14. Variant C36G C75A has a self-cleavage of 0.151. With G10A C30U the self-cleavage was 0.248. For C22G A43G, the self-cleavage was 0. A43C A45G showed a self-cleavage of 0.643. G59U A78U showed a self-cleavage of 0.285. Work on C48U C66A yielded a self-cleavage of 0.923. Variant G11U G38U has a self-cleavage of 0.0961. With G55A G68U the self-cleavage was 0.965. Work on U20G G76C yielded a self-cleavage of 0.35. C22A C58A gave a self-cleavage of 0.203. Variant C13G G28U has a self-cleavage of 0. For U20A C26U, the self-cleavage was 0.158. Work on A45C G59A yielded a self-cleavage of 0.704. Work on C63G C66A yielded a self-cleavage of 0.289. Work on G6U G81A yielded a self-cleavage of 0.0997. In the case of C41G C44G, the self-cleavage is reported as 0.158. Variant G17C C33G has a self-cleavage of 0. Variant G68C G73U has a self-cleavage of 0.158. Work on C13G U79A yielded a self-cleavage of 0. In the case of G25C A42U, the self-cleavage is reported as 0. Variant U23A C62A has a self-cleavage of 0.872. C7G C18G gave a self-cleavage of 0. Variant C48U A56U has a self-cleavage of 0.987.
